Changes are numbered by the printed parent chain.

Holding throughout (settings): tags: GST
Data set [1] addresses T1, UP1 (shortened hnRNP A1), GST fusion (UniProt P09651 P09651:1-196). Description: EMSA.
Data set [2] addresses T1, UP1 (shortened hnRNP A1), GST fusion. Description: EMSA; best binder; 0.5 and 1 ug GST-UP1. The protocol:
(§1) A shortened version of recombinant hnRNP A1 (GST-UP1) was used for testing binding affinity. Each labeled oligo was incubated with increasing amounts of GST-UP1 (0.5 and 1 μg). The TS10 oligo is a telomeric DNA oligo of 60 nt containing nine high-affinity A1 binding sites. Complexes were fractionated in a 5% acrylamide gel. The position of the free oligos and complexes is shown. (C) Pre-mRNAs were incubated in a HeLa extract for 2 hours in the presence of increasing amounts of oligonucleotides (0.01, 0.02, 0.05, 0.1, 0.5 pmoles in 12.5 μl reaction). The RNA was extracted and fractionated on a denaturing 11% acrylamide gel. The position of the pre-mRNAs, splicing intermediates and products is indicated. (D) Based on the results obtained in panel C, the relative use of proximal and distal splicing was compiled, expressed as a ratio of percentages and plotted relative to the amount of oligo used. (E) Labeled pre-mRNAs were incubated as above in the presence of increasing amounts of oligonucleotides (0.01, 0.02, 0.05, 0.1, 0.5 pmoles in 12.5 μl reaction). The RNA was extracted and fractionated on a denaturing 11% acrylamide gel. The position of the pre-mRNAs, splicing intermediates and products is indicated. (F) Labeled pre-mRNAs were incubated with increasing amounts of oligonucleotides (0.01, 0.02, 0.05, 0.1, 0.5 pmoles in 12.5 μl reaction). […]
(In general: A gel shift assay detects complexes by their altered migration in electrophoresis.)

Data set [3] has the same target. Description: EMSA. The procedure: as §1
This is another data set of the same source.

Data set [4] has the same target. Description: EMSA; best UP1 binder (printed X4-A1W).
For data set [5] the target is unchanged. Description: EMSA; text prints X-M4A1W as non-binder, evidently X-M4A1M.

T1 sequence (P09651 1-196, one chain of several): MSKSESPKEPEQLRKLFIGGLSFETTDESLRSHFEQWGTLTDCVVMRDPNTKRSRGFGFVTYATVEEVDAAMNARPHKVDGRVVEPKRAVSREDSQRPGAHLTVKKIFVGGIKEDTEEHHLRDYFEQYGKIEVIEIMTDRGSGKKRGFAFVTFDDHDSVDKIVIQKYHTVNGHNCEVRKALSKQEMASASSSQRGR

B1: X-M4 (ssRNA)
RNA: GCCGCCGUUCUCCUGGAUCC
modifications: 2'-OMe
B1: in data set [1], the binding result was “no binding”.

B2: C5-M4A1W (ssRNA)
RNA: UAUGAUAGGGACUUAGGGUGUACCACCGCCAAAGCCGCCU
As for B2, the binding result in data set [2] was “binds”.

B3: C5-M4A1M (ssRNA)
RNA: B2 RNA with G8C, G10C, G16C, G18C
On to B3, for which, in data set [3], the binding result is reported as “no binding”.

B4: X-M4A1W (ssRNA)
RNA: UAUGAUAGGGACUUAGGGUGGCCGCCGUUCUCCUGGAUCC
modifications: 2'-OMe
As to B4, the binding result in data set [4] was “binds”.

B5: X-M4A1M (ssRNA)
RNA: B4 RNA with G8C, G10C, G16C, G18C
modifications: 2'-OMe
As to B5, in data set [5], the binding result was “no binding”.

B6: X-5 (ssRNA)
RNA: UUCUUACCCAGCCGCCGUUC
modifications: 2'-OMe
Turning to B6, in data set [1], the binding result was “no binding”.

B7: C5-M4 (ssRNA)
RNA: UACCACCGCCAAAGCCGCCU
B7: the binding result in data set [3] is recorded as “no binding”.

The values are drawn from patent US20060058253, “Methods to reprogram splice site selection in pre-messenger rnas” (published 2006).
